Reference: PMC11903878, “Structural mechanisms for centrosomal recruitment and organization of the microtubule nucleator γ-TuRC” (Nature Communications, 2025)
Each block holds one molecule with its values, some of them ahead of it.

Assays:
[1] = molecular target: X. laevis 2×FLAG-TEV-NEDD1-3C-GCP3(1–240)/ALFA-MZT1 complex (X. laevis) (UniProt O73787); assay: mass photometry; Refeyn TwoMP; purified NEDD1-N-GCP3/MZT1 diluted to a final concentration below 40 nM; tetramer of the fusion/MZT1 protomer
[2] = molecular target: T1, human Augmin TII N-clamp with HAUS8∆[1-138] (human, UniProt Q9NVX0 1-118; Q7Z4H7 1-269; Q99871 1-299; Q9BT25 139-248); assay: pull-down; 25 μg recombinant EGFP-tagged Augmin TII N-clamp∆H8N added to lysate of HEK293 cells overexpressing POC5-HA or POC5^mut-HA, captured on GFP binder beads, 1 hr 4 °C; 50 mM Tris pH 7.5, 150 mM NaCl; HA blot; conditions: one partner purified
T1 construct: HAUS2, human, codons 1 to 118; HAUS6, human, codons 1 to 269; HAUS7, human, codons 1 to 299, followed by a TEV-EGFP-8xHis cleavable tag; HAUS8, human, codons 1 to 248 with the N-terminal truncation HAUS8∆[1-138]; The range 139-248 of HAUS8 is worked out from the printed limits 1 to 248 and the deletion 1-138; also called Augmin N-clamp; Augmin TII N-clamp∆H8N; source: E. coli BL21 CodonPlus-RIL, …

[3] = molecular target: the molecule itself; assay: cryo-EM structure; single particle analysis of the native γ-TuRC affinity-purified from X. laevis egg extract; particles with stoichiometric NEDD1/N-GCP3/MZT1 grapnel; AlphaFold2 models flexibly fitted (MDFF) into the density

T1 sequence (Q9NVX0 1-118, chain 1 of 4): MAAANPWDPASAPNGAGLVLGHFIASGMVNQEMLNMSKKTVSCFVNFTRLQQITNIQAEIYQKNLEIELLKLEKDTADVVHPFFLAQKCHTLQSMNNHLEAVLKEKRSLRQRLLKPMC
T1 sequence (Q7Z4H7 1-269, chain 2 of 4): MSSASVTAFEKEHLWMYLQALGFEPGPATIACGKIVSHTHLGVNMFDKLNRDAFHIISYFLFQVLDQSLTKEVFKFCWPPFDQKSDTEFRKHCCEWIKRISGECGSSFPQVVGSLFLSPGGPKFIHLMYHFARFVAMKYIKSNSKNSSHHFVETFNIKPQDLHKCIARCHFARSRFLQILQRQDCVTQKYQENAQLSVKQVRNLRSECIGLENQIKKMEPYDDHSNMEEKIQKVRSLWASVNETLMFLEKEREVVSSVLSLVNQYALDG
T1 sequence (Q99871 1-299, chain 3 of 4): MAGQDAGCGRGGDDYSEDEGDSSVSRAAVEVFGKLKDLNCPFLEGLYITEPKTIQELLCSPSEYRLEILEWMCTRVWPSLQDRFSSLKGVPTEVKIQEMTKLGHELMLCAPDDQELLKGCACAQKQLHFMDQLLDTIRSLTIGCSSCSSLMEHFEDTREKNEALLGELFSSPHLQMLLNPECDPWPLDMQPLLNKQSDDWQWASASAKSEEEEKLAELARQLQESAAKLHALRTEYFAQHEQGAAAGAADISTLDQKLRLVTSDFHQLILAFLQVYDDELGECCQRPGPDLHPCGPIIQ
T1 sequence (Q9BT25 139-248, chain 4 of 4): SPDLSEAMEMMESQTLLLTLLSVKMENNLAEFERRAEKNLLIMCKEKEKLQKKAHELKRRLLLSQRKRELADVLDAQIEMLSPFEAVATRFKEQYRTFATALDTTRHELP

stoichiometry N [1]: 4
Molecule: X. laevis 2×FLAG-TEV-NEDD1-3C-GCP3(1–240)/ALFA-MZT1 complex (from UniProt O73787 1-240; Q5U4M5 1-72)

fold reduction against wild-type [2]: 3 fold
B1: POC5^mut-HA (S224E, R227A, K228A, V231A, S234K, L235A) (natural protein, human, UniProt Q8NA72 1-575, looked up)
chain: MSSDEEKYSLPVVQNDSSRGSSVSSNLQEEYEELLHYAIVTPNIEPCASQSSHPKGELVPDVRISTIHDILHSQGNNSEVRETAIEVGKGCDFHISSHSKTDESSPVLSPRKPSHPVMDFFSSHLLADSSSPATNSSHTDAHEILVSDFLVSDENLQKMENVLDLWSSGLKTNIISELSKWRLNFIDWHRMEMRKEKEKHAAHLKQLCNQINELKELQKTFEIEIGAADEAISKASHAIGKQKEKIELMRTFFHWRIGHVRARQDVYEGKLADQYYQRTLLKKVWKVWRSVVQKQWKDVVERACQARAEEVCIQISNDYEAKVAMLSGALENAKAEIQRMQHEKEHFEDSMKKAFMRGVCALNLEAMTIFQNRNDAGIDSTNNKKEEYGPGVQGKEHSAHLDPSAPPMPLPVTSPLLPSPPAAVGGASATAVPSAASMTSTRAASASSVHVPVSALGAGSAATAASEEMYVPRVVTSAQQKAGRTITARITGRCDFASKNRISSSLAIMGVSPPMSSVVVEKHHPVTVQTIPQATAAKYPRTIHPESSTSASRSLGTRSAHTQSLTSVHSIKVVD
notes: POC5, human, with six point mutations in the predicted POC5-Augmin interface; source: HEK293 (Tet-On 3G), overexpressed, in lysate; not shown: HA, C-terminal, kept

B2: NEDD1 (neural precursor cell expressed, developmentally down-regulated 1), X. laevis, endogenous (natural protein, X. laevis (endogenous in egg extract), UniProt A0A8J0Q0Y8 1-671, looked up)
chain: MESRGGGGRVRLPGTTMQDNIRFVSAGDDVKIWDYSSMTTVEQFNPHSASHPVSSLCWSSNNHFLVTASGSGDKIVVSSCKSKPVPLLELAEGKKQTCVNLNSSSQYVVSGGLDNTVNIWDLKSKRLHRSLKDHKDEVTCVTFNANDCYVASGSMSGEIILHNVTTNLSSTPFGHGSSQPIRHLKYSYVKKSLLGTVSDSGSVTLWDANSQNPYHVFESAHKAPASGICFSPVNDLLLVTVGLDKRIICYDVSSKILLQTVVAESPLTAVDFMPDGATLAVGSSRGKIYLYDLRMLSSPVKTVSAHKTSVQCIQFQHSNIYKSSKGPSSKSSILSTAVNKKPSTKTAAGGTQSANITKDLPPSAISSLPQPVMPVDSKVLRVNDDKSGFPRSTSLDIIPSKETDFAKTSDYKSIDSFGRSSLGDIFSPVRDDASHFRGAEDLSCKGNDLDYLPQFSTIPSSRRNPVGANTQGIHGSPLHLIIESPIKEEDESQDSELKTRKPQLLKQDFRESSSKPASVDQNNLNNSPINSVTRTPEAIEKTGHQILSQLKSDVPAHGTKIASPKVAATMSTQLASSLSEKIADTLASDRTGAPLTAIQINFIKNMIEETLDDFREACHRDIVNLQVEMIKQFHIQSSEIQMLLERYSLNESLVSEIEKLREENKRLRANF
notes: NEDD1, X. laevis, endogenous; NM_001094388.1 is printed for the cDNA of the recombinant constructs; also called NEDD1^C (its C-terminus); source: endogenous, X. laevis egg extract; co-purified with the γ-TuRC
stoichiometry N [3]: 4
